The text below walks through data of US20230357429A1 (JANUX THERAPEUTICS, published 2023).

For assay [1], the target named is T1, Human TROP2 ECD (31-274 AA), biotinylated (human, UniProt P09758 31-274, biotinylated (site not stated)).
T1 construct: also called tumor-associated calcium signal transducer 2; Human TROP2-biotin
T1 sequence: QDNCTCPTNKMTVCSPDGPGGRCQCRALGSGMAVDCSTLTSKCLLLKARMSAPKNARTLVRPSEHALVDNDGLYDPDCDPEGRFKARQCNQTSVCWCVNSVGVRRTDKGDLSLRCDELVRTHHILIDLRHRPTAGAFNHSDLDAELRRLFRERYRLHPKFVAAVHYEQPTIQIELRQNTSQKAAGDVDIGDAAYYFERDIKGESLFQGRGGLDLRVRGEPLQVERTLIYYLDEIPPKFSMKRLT
Briefly: ELISA on immobilized TROP2. (An ELISA detects its analyte on a solid surface through an enzyme-linked reagent.)

In assay [2] the target is T1, Human TROP2 ECD (31-274 AA), …. Briefly: ELISA on immobilized TROP2. The source holds these as a separate data set.
Assay [3] has as its target T2, TBD-21 (HC F108A).
T2 construct: Fab; also called HC F108A mutant
Briefly: competition ELISA, peptide vs Fab binding to captured biotin-TROP2.

The target in assay [4] is T3, TBD-11 (HC R98A).
T3 construct: Fab; also called HC R98A mutant
The assay is described as above.

Assay [5] concerns the target T4, TBD-22 (HC D109A).
T4 construct: Fab; also called HC D109A mutant
The assay is described as above.

Assay [6] addresses T5, TBD-1 wt.
T5 construct: Fab; the heavy chain entry is VH-CH1; also called wild-type anti-TROP2 Fab (hRS7); TROP2 Fab
The description is as above.

The target in assay [7] is T6, TBD-17 (HC S104A).
T6 construct: Fab; also called HC S104A mutant
Described as above.

Assay [8] concerns the target T7, TBD-6 (LC I93A).
T7 construct: Fab; also called LC I93A mutant
Described as above.

Assay [9] has as its target T2, TBD-21 (HC F108A). The description is as above. This is another data set of the same source.
For assay [10], the target named is T3, TBD-11 (HC R98A). The description is as above. This is another data set of the same source.
Assay [11] addresses T4, TBD-22 (HC D109A). The description is as above. This is another data set of the same source.
Assay [12] concerns the target T5, TBD-1 wt. The assay is described as above. This is another data set of the same source.
Assay [13] addresses T6, TBD-17 (HC S104A). The assay is described as above. This is another data set of the same source.
The target of assay [14] is T7, TBD-6 (LC I93A). The description is as above. This is another data set of the same source.
For assay [15], the target named is T8, TCE-33 (anti-CD3 scFv F240A; anti-TROP2 wt).
T8 construct: scFv on the Fab heavy chain; also called TCE-33 (F240A)
The experiment in a line: competition ELISA, TCE on captured CD3.

Assay [16] addresses T9, TCE-14 (anti-CD3 scFv F104A; anti-TROP2 wt).
T9 construct: scFv on the Fab heavy chain; also called TCE-14 (F104A)
The experiment in a line: competition ELISA, TCE on captured CD3.

For assay [17], the target named is T10, TCE-10 (anti-CD3 scFv R100A; anti-TROP2 wt).
T10 construct: scFv on the Fab heavy chain; also called TCE-10 (R100A)
Briefly: competition ELISA, TCE on captured CD3.

In assay [18] the target is T11, TCE-13 (anti-CD3 scFv N103A; anti-TROP2 wt).
T11 construct: scFv on the Fab heavy chain; also called TCE-13 (N103A)
Briefly: competition ELISA, TCE on captured CD3.

Assay [19] concerns the target T12, TCE-11 (anti-CD3 scFv H101A; anti-TROP2 wt).
T12 construct: scFv on the Fab heavy chain; also called TCE-11 (H101A)
Briefly: competition ELISA, TCE on captured CD3.

The target in assay [20] is T13, TCE-20 (anti-CD3 scFv S110A; anti-TROP2 wt).
T13 construct: scFv on the Fab heavy chain; also called TCE-20 (S110A)
The experiment in a line: competition ELISA, TCE on captured CD3.

Assay [21] has as its target T14, TCE-1 (anti-CD3 scFv wt; anti-TROP2 Fab wt).
T14 construct: anti-CD3 scFv fused to the N-terminus of the anti-TROP2 Fab heavy chain; also called TCE-1 (wt)
The experiment in a line: competition ELISA: peptide titrated and pre-incubated with a constant concentration of TCE-1, binding of TCE-1 to plate-bound biotinylated CD3 detected.

Numbering of substitutions follows the chain as printed. In names and notes the source's numbering stands. Where two headings read alike, the source gives them in different places. Where no end group is shown, it is not given here.

B1: TCE-6 (bispecific antibody)
light: DIQLTQSPSSLSASVGDRVSITCKASQDVSIAVAWYQQKPGKAPKLLIYSASYRYTGVPDRFSGSGSGTDFTLTISSLQPEDFAVYYCQQHYITPLTFGAGTKVEIKRTVAAPSVFIFPPSDEQLKSGTASVVCLLNNFYPREAKVQWKVDNALQSGNSQESVTEQDSKDSTYSLSSTLTLSKADYEKHKVYACEVTHQGLSSPVTKSFNRGEC
heavy: not shown
In the case of B1, the EC50 (as a rule, the midpoint of the concentration-response curve) in assay [1] is 0.37 nM; in assay [2] it was 0.46 nM.

B2: Peptide-39 (peptide)
peptide: VDFCGLYHWPICYQVD
modifications: cysteine pairing not given here; also: biotinylated, site not given here
B2: the IC50 – broadly, the midpoint of a concentration-inhibition curve – worked out at 2230 nM in assay [3]; 1640 nM in assay [4]; 140 nM in [5]; 460 nM in [6]; 1690 nM in assay [7]; 670 nM in assay [8].

B3: Peptide-41 (peptide)
peptide: VDFCGLYHWPICYQVY
modifications: cysteine pairing not given here; also: biotinylated, site not given here
As for B3, the IC50 in [3] is 1500 nM; in [4], 1510 nM; in assay [5], 110 nM; in assay [6], 640 nM; in [7], 1550 nM; in [8], 580 nM.

B4: Peptide-25 (peptide)
peptide: VDFCKIYSWPVCHQ
modifications: cysteine pairing not given here; also: biotinylated (site not given here)
With B4, the IC50 in [9] is 6450 nM; in [10], 8100 nM; in [11], 140 nM; in assay [12] it was 2580 nM; in [13], 3040 nM; in assay [14], 1030 nM. In addition, the IC50 in assay [3] was determined as 6730 nM; in assay [4], 18000 nM; in [5] it was 290 nM; in assay [6], 3030 nM; in assay [7], 3750 nM; in assay [8], 1280 nM.

B5: TCE-3 (bispecific antibody)
light: not shown
heavy: QVQLQQSGSELKKPGASVKVSCKASGYTFTNYGMNWVKQAPGQGLKWMGWINTYTGEPTYTDDFKGRFAFSLDTSVSTAYLQISSLKADDTAVYFCAAGGFGSSYWYFDVWGQGSLVTVSSASTKGPSVFPLAPSSKSTSGGTAALGCLVKDYFPEPVTVSWNSGALTSGVHTFPAVLQSSGLYSLSSVVTVPSSSLGTQTYICNVNHKPSNTKVDKKVEPKSC
For the molecule B5, in assay [2], a half-maximal response (EC50) required 3.18 nM.

B6: Peptide-75 (peptide)
peptide: GSACLGPEWEVCPY
modifications: cysteine pairing not given here; also: biotinylated, site not given here
notes: mask peptide for the CD3 scFv
As for B6, the IC50 in assay [15] is 7460 nM; in assay [16], 4210 nM; in [17], 4740 nM; in [18] it was 47700 nM; in [19] it was 2080 nM; in assay [20], 120000 nM. For the same molecule, in assay [21], the binding result is “binds”.

B7: Peptide-3 (peptide)
peptide: IDFCMLYNWPICAG
modifications: cysteine pairing not given here; also: biotinylated, site not given here
On to B7, for which the IC50 in assay [9] was found to be 2640 nM; in assay [10] it was 1480 nM; in assay [11], 90 nM; in [12], 340 nM; in [13], 1010 nM; in assay [14], 370 nM. The half-inhibitory concentration (IC50) in assay [3] came to 2000 nM; in assay [4], 2720 nM; in assay [5] it was 120 nM; in assay [6] it was 430 nM; in assay [7], 1480 nM; in assay [8] it was 530 nM.

B8: PC-15 (bispecific antibody)
light: not shown
heavy: GGVDFCGLYHWPICYQGGGGSGGLSGRSDAGSPLGLAGSGGSQVQLQQSGSELKKPGASVKVSCKASGYTFTNYGMNWVKQAPGQGLKWMGWINTYTGEPTYTDDFKGRFAFSLDTSVSTAYLQISSLKADDTAVYFCARGGFGSSYWYADVWGQGSLVTVSSASTKGPSVFPLAPSSKSTSGGTAALGCLVKDYFPEPVTVSWNSGALTSGVHTFPAVLQSSGLYSLSSVVTVPSSSLGTQTYICNVNHKPSNTKVDKKVEPKSC
notes: anti-TROP2 F108A
Take B8: the EC50 in [2] was found to be 363 nM.

B9: Peptide-40 (peptide)
peptide: VDFCYLYSWPICTK
modifications: cysteine pairing not given here; also: biotinylated, site not given here
As to B9, the IC50 in assay [3] worked out at 10000 nM; in [4] it was 14600 nM; in [5] it was 580 nM; in assay [6], 3630 nM; in assay [7] it was 7260 nM; in assay [8] it was 2280 nM.

B10: PC-12 (bispecific antibody)
light: GGVDFCGLYHWPICYQGGGGSGGLSGRSDAGSPLGLAGSGGSDIQLTQSPSSLSASVGDRVSITCKASQDVSIAVAWYQQKPGKAPKLLIYSASYRYTGVPDRFSGSGSGTDFTLTISSLQPEDFAVYYCQQHYITPLTFGAGTKVEIKRTVAAPSVFIFPPSDEQLKSGTASVVCLLNNFYPREAKVQWKVDNALQSGNSQESVTEQDSKDSTYSLSSTLTLSKADYEKHKVYACEVTHQGLSSPVTKSFNRGEC
heavy: not shown
notes: anti-TROP2 R98A
In [2], B10 returned an EC50 of 352 nM.

B11: PC-14 (bispecific antibody)
light: B10 light
heavy: not shown
notes: anti-TROP2 F108A
As to B11, the EC50 in [2] stood at 333 nM.

B12: PC-22 (bispecific antibody)
light: B10 light with G17V
heavy: not shown
notes: anti-TROP2 R98A
As to B12, in assay [1], the EC50 stood at 142 nM.

B13: PC-24 (bispecific antibody)
light: B10 light with G17V
heavy: not shown
notes: anti-TROP2 D109A
In assay [1], B13 yielded an EC50 of 87.5 nM.

B14: PC-20 (bispecific antibody)
light: B10 light with G7A
heavy: not shown
notes: anti-TROP2 D109A
For B14, the response in [1] was half-maximal at 74.3 nM (EC50).

B15: PC-26 (bispecific antibody)
light: B10 light with G7A, L8I, H10S, Y15K, Q16I
heavy: not shown
notes: anti-TROP2 D109A
In [1], B15 gave an EC50 of 54.3 nM.

B16: PC-16 (bispecific antibody)
light: B10 light with V3I, G7A, L8I, H10Q, I13V, Y15R, Q16S
heavy: not shown
notes: anti-TROP2 D109A
As to B16, in assay [1], the EC50 stood at 69.8 nM.
